Results as given in patent US11078465B2, “Alcohol dehydrogenase mutant and application thereof in synthesis of diaryl chiral alcohols” (Jiangnan University, priority 2018, dated 2021).
Changes are numbered by the printed parent chain. Names and notes keep the numbering of the source. Values joined by “and” are separate entries in the source; they are usually repeats but may differ in a detail not shown here. Equal values may be shown once. “Also recorded” adds a separate entry of the source.

Tests used:
Format in all cases: biochemical
[1] = Stereoselectivity (ee) of CPMK reduction, chiral liquid chromatography
Description: (§1) In an embodiment of the present disclosure, a chromatographic analysis method is as follows: 100 μL of reactant liquid is taken, 500 μL of ethyl acetate is added, shaking is performed for 1-2 min, centrifugation is performed at 12,000 rpm for 2-5 min, supernatant liquid is taken into a centrifuge tube, after an organic phase naturally volatilizes completely, 500 μL of chromatographically pure ethanol is added, and chiral liquid chromatography and gas chromatography are performed to analyze the transformation rate and the ee value.
(§2) Method for determining optical purity ee:
(§3) As: molar concentration of (S)-CPMA obtained by liquid chromatography; and AR: molar concentration of (R)-CPMA obtained by liquid chromatography.

[2] = Substrate specificity, specific activity
Description: (§4) Adopting a total reaction system of 200 μL, including: 1.0 mM NADPH, 1.0 mM substrate CPMK and sodium phosphate buffer (PBS, 100 mM, pH 7.0), fully and evenly mixing, maintaining at 30° C. for 2 min, adding an appropriate amount of enzyme solution, and detecting the change in light absorption at 340 nm.
(§5) The enzyme activity was calculated by the following formula: Enzyme activity (U)=EW×V×10^3/(6220×I);
(§6) in the formula, EW is the change in absorbance at 340 nm in 1 min; V is the volume of a reaction solution in mL; 6220 is the molar extinction coefficient of NADPH in L/mol·cm); and 1 is the optical path distance in cm. One activity unit (U) corresponds to the amount of enzyme required to catalyze the oxidation of 1 μmol NADPH per minute under the above conditions.
(§7) The reduction on prochiral carbonyl compounds by the alcohol dehydrogenase mutants obtained in Example 3 was studied. The pro-chiral carbonyl compounds include (4-chlorophenyl)-(pyridin-2-yl)-methanone (CPMK), phenyl-(pyridin-2-yl)-methanone, (4-chlorophenyl)-(phenyl)-methanone, (4-bromophenyl)(phenyl)methanone, (4-fluorophenyl)(phenyl)methanone, (4-methoxyphenyl)-(phenyl)-methanone, (4-nitrophenyl)(phenyl)methanone, 1-(pyridin-2-yl)ethanone, acetophenone, 4′-Chloroacetophenone, 4-chlorophenacyl chloride, ethyl 2-oxo-4-phenylbutanoate (OPBE), ethyl 4-chloro-3-oxobutanoate, and methyl 2-oxo-2-phenylacetate.

[3] = Stereoselectivity on different substrates; details: for Stereoselectivity (ee): configuration in brackets
Description: as §1, §2, §3, §7
All the products above were recrystallized from ethyl acetate and gave more than 99.9% optical purity.

[4] = Stereoselectivity on different substrates; details: configuration in brackets
Description: as §1, §2, §3, §7

[5] = Asymmetric reduction in 20 mL biocatalytic system, conversion
Description: as §1
The pure (R)-CPMA were recrystallized from ethyl acetate at 4° C. and gave 99.9% optical purity. […] Besides, the conversion cannot reach 100% with 24 h in the asymmetric reduction of (4-bromophenyl)-(phenyl)-methanone and p-nitrobenzophenone due to the low enzyme activity.

[6] = Kinetic analysis of alcohol dehydrogenase and mutants (NADPH oxidation, 340 nm, double reciprocal curve); details: substrate CPMK
Description: as §4, §5, §6
A column used for purification was a nickel affinity column HisTrap FF crude, and purification was achieved through affinity chromatography using a histidine tag on recombinant protein. The nickel column was equilibrated with a solution A first, a crude enzyme solution was loaded, a penetrating peak was further eluted off using the solution A, and after equilibrium, a solution B (20 mM sodium phosphate, 500 mM NaCl, and 1000 mM imidazole, pH 7.4) was used for gradient elution to elute off the recombinant protein bound to the nickel column, so as to obtain the recombinant alcohol dehydrogenase mutant. The purified protein was subjected to activity measurement (CPMK as substrate, and NADPH as coenzyme) and SDS-PAGE analysis. […] The purified alcohol dehydrogenase protein was then replaced into a Tris-HCl (100 mM, pH 7.0) buffer using a Hi Trap Desalting column (GE Healthcare).
The activity of KpADH at different substrate concentrations and coenzyme concentrations was determined, and a double reciprocal curve was made based on the reciprocal of activity and substrate concentration to calculate kinetic parameters.

[7] = product configuration in brackets
[8] = substrate [drawing 6], 4-chlorophenacyl chloride
[9] = substrate [drawing 9], ethyl 4-chloro-3-oxobutanoate
[10] = substrate [drawing 10], acetophenone
[11] = substrate [drawing 11], 4-chloroacetophenone
[12] = substrate [drawing 12], 4-chlorobenzoyl chloride
[13] = substrate [drawing 16], (4-bromophenyl)-(phenyl)-methanone
[14] = substrate [drawing 17], p-nitrobenzophenone
[15] = substrate [drawing 14], likely CPMK (values partly match Table 4)

B1: E214G/S237C: glycine for glutamate at position 214 and cysteine for serine at position 237 of SEQ ID No. 2 (protein)
chain: MSVLISGASGYIAKHIVRVLLEQNYKVIGTVRSQDKADKLLKQYNNPNLSYEIVPEIANLDAFDDIFKKHGKEIKYVIHAASPVNFGAKDLEKDLVIPAINGTKNMFEAIKKYAPDTVERVVMTASYASIMTPHRQNDPTLTLDEETWNPVTEENAYENVFTAYCASKTFAEKEAWKFVKENSDAVKFKLTTIHPSFVFGPQNFDEDVTKKLNGTCEIINGLLHAPFDTKVEKTHFCQFIDVRDVAKTHVLGFQKDELINQRLLLCNGAFSQQDIVNVFNEDFPELKGQFPPEDKDTDLNKGVTGCKIDNEKTKKLLAFEFTPFHKTIHDTVYQILHKEGRV
modifications: Protein translated from synthetic DNA
- configuration of product / stereoselectivity in words [1]: inversion from the R configuration to the S configuration; also recorded: (S)-CPMA
- ee value, (S)-CPMA ([1]; S configuration product): 75.5%
- e.e. [1, 7]: 75.5 (S)
- specific activity ([2]; substrate [drawing 1]): 0.15 U/mg
- specific activity ([2]; substrate [drawing 2]): 0.07 U/mg
- specific activity ([2]; substrate [drawing 3]): 0.12 U/mg
- specific activity ([2]; substrate [drawing 4]): 3.10 U/mg
- specific activity ([2]; substrate [drawing 5]): 4.84 U/mg
- specific activity [2, 8]: 9.81 U/mg
- specific activity ([2]; substrate [drawing 7]): 10.26 U/mg
- specific activity ([2]; substrate [drawing 8]): 21.25 U/mg
- specific activity [2, 9]: 1.55 U/mg
- Stereoselectivity (ee) [3, 10]: 99.5 (R)
- Stereoselectivity (ee) [3, 11]: 93.8 (R)
- Stereoselectivity (ee) [3, 12]: 96.2 (R)
- Stereoselectivity (ee) [3, 13]: 91.4 (R)
- Stereoselectivity (ee) [3, 14]: 93.3 (R)
- ee value ([3]; substrate acetophenone, R configuration products): 99.5%
- Stereoselectivity (ee) ([4]; substrate [drawing 13]): 51.9 (R)
- Stereoselectivity (ee) [4, 15]: 43.2 (S)
- Stereoselectivity (ee) ([4]; substrate [drawing 15]): 86.2 (R)
- Stereoselectivity (ee) ([4]; substrate [drawing 18]): 93.8 (S)
- Conversion rate ([5]; acetophenone 100 mM, 1 h): 42%
- Conversion rate ([5]; acetophenone 100 mM, 2 h): 53%
- Conversion rate ([5]; acetophenone 100 mM, 3 h): 65%
- Conversion rate ([5]; acetophenone 100 mM, 4 h): 77%
- Conversion rate ([5]; acetophenone 100 mM, 6 h): 95%
- Conversion rate ([5]; acetophenone 100 mM, 8 h): 99.0%
- Conversion rate ([5]; acetophenone 100 mM, 12 h): >99.9%
- Conversion rate ([5]; acetophenone 100 mM, 24 h): >99.9%
- Conversion rate ([5]; acetophenone 200 mM, 1 h): 35%
- Conversion rate ([5]; acetophenone 200 mM, 2 h): 49%
- Conversion rate ([5]; acetophenone 200 mM, 3 h): 60%
- Conversion rate ([5]; acetophenone 200 mM, 4 h): 72%
- Conversion rate ([5]; acetophenone 200 mM, 6 h): 85.9%
- Conversion rate ([5]; acetophenone 200 mM, 8 h): 93.6%
- Conversion rate ([5]; acetophenone 200 mM, 12 h): 99.2%
- Conversion rate ([5]; acetophenone 200 mM, 24 h): 99.7%
- Conversion rate ([5]; acetophenone 500 mM, 1 h): 20.9%
- Conversion rate ([5]; acetophenone 500 mM, 2 h): 34.5%
- Conversion rate ([5]; acetophenone 500 mM, 3 h): 49.6%
- Conversion rate ([5]; acetophenone 500 mM, 4 h): 62.6%
- Conversion rate ([5]; acetophenone 500 mM, 6 h): 77.9%
- Conversion rate ([5]; acetophenone 500 mM, 8 h): 88.6%
- Conversion rate ([5]; acetophenone 500 mM, 12 h): 92.9%
- Conversion rate ([5]; acetophenone 500 mM, 24 h): 99.2%

B2: E214Q/S237C: glutamine for glutamate at position 214 and cysteine for serine at position 237 of SEQ ID No. 2 (protein)
chain: B1 chain with G214Q
modifications: Protein translated from synthetic DNA
- Kcat [6]: 7.06 ± 0.63 s⁻¹
- Km [6]: 550 ± 20 µM
- Vmax [6]: 10.59 ± 0.16 µM/min/mg
- configuration of product / stereoselectivity in words [1]: inversion from the R configuration to the S configuration; also recorded: (S)-CPMA
- e.e. [1, 7]: 44.6 (S)
- specific activity ([2]; substrate [drawing 1]): 0.22 U/mg
- specific activity ([2]; substrate [drawing 2]): 0.12 U/mg
- specific activity ([2]; substrate [drawing 3]): 0.09 U/mg
- specific activity ([2]; substrate [drawing 4]): 5.65 U/mg
- specific activity ([2]; substrate [drawing 5]): 3.65 U/mg
- specific activity [2, 8]: 10.25 U/mg
- specific activity ([2]; substrate [drawing 7]): 9.89 U/mg
- specific activity ([2]; substrate [drawing 8]): 22.65 U/mg
- specific activity [2, 9]: 2.65 U/mg
- Stereoselectivity (ee) [3, 10]: 96.5 (R)
- Stereoselectivity (ee) [3, 11]: 93.5 (R)
- Stereoselectivity (ee) [3, 12]: 97.6 (R)
- Stereoselectivity (ee) [3, 13]: 92.6 (R)
- Stereoselectivity (ee) [3, 14]: 93.3 (R)
- Stereoselectivity (ee) ([4]; substrate [drawing 13]): 56.6 (R)
- Stereoselectivity (ee) [4, 15]: 44.6 (S)
- Stereoselectivity (ee) ([4]; substrate [drawing 15]): 88.6 (R)
- Stereoselectivity (ee) ([4]; substrate [drawing 18]): 90.6 (R)

B3: WT: wild type alcohol dehydrogenase KpADH, amino acid sequence SEQ ID No. 2 (protein)
chain: B1 chain with G214E, C237S
modifications: Protein translated from synthetic DNA
- ee value, (R)-CPMA ([1]; R configuration product): 82% and 81.7%
- e.e. [1, 7]: 81.7 (R)
- ee % [1, 7]: 81.7 (R) %
- specific activity ([2]; substrate [drawing 1]): 0.99 U/mg
- specific activity ([2]; substrate [drawing 2]): 1.34 U/mg
- specific activity ([2]; substrate [drawing 3]): 4.15 U/mg
- specific activity ([2]; substrate [drawing 4]): 4.07 U/mg
- specific activity ([2]; substrate [drawing 5]): 12.09 U/mg
- specific activity [2, 8]: 20.67 U/mg
- specific activity ([2]; substrate [drawing 7]): 27.02 U/mg
- specific activity ([2]; substrate [drawing 8]): 39.77 U/mg
- specific activity [2, 9]: 41.84 U/mg
- Stereoselectivity (ee) [3, 10]: 88.6 (R)
- Stereoselectivity (ee) [3, 11]: 92.9 (R)
- Stereoselectivity (ee) [3, 12]: 95.2 (R)
- Stereoselectivity (ee) [3, 13]: 70.5 (S)
- Stereoselectivity (ee) [3, 14]: 37.6 (R)
- Stereoselectivity (ee) ([4]; substrate [drawing 13]): 27.5 (R)
- Stereoselectivity (ee) [4, 15]: 83.7 (R)
- Stereoselectivity (ee) ([4]; substrate [drawing 15]): 52.4 (S)
- Stereoselectivity (ee) ([4]; substrate [drawing 18]): 27.3 (R)
- ee in asymmetric synthesis of (R)-CPMA ([5]; 20 mL biocatalytic system, 30° C., pH 7.5): 82%
- Conversion rate ([5]; CPMK 100 mM, 1 h): 50.5%
- Conversion rate ([5]; CPMK 100 mM, 2 h): 65.5%
- Conversion rate ([5]; CPMK 100 mM, 3 h): 79.5%
- Conversion rate ([5]; CPMK 100 mM, 4 h): 88.8%
- Conversion rate ([5]; CPMK 100 mM, 6 h): 98.5%
- Conversion rate ([5]; CPMK 100 mM, 8 h): >99.9%
- Conversion rate ([5]; CPMK 100 mM, 12 h): >99.9%
- Conversion rate ([5]; CPMK 100 mM, 24 h): >99.9%
- Conversion rate ([5]; CPMK 200 mM, 1 h): 35.6%
- Conversion rate ([5]; CPMK 200 mM, 2 h): 46.9%
- Conversion rate ([5]; CPMK 200 mM, 3 h): 62.0%
- Conversion rate ([5]; CPMK 200 mM, 4 h): 75.5%
- Conversion rate ([5]; CPMK 200 mM, 6 h): 95.6%
- Conversion rate ([5]; CPMK 200 mM, 8 h): 98.8%
- Conversion rate ([5]; CPMK 200 mM, 12 h): 99.4%
- Conversion rate ([5]; CPMK 200 mM, 24 h): 99.7%
- Conversion rate ([5]; CPMK 500 mM, 1 h): 22.5%
- Conversion rate ([5]; CPMK 500 mM, 2 h): 30%
- Conversion rate ([5]; CPMK 500 mM, 3 h): 55.6%
- Conversion rate ([5]; CPMK 500 mM, 4 h): 66.5%
- Conversion rate ([5]; CPMK 500 mM, 6 h): 80.2%
- Conversion rate ([5]; CPMK 500 mM, 8 h): 93.2%
- Conversion rate ([5]; CPMK 500 mM, 12 h): 95.6%
- Conversion rate ([5]; CPMK 500 mM, 24 h): 99.2%
